Measured values: article doi:10.1101/2020.04.03.022970v1

Substrate: N[C@@H](Cc1c[nH]c2ccccc12)C(=O)O
Assay: radiolabelled uptake in intact E. coli MQ614
Assay type: cell-based, Halalkalibacterium halodurans
Conditions: 10-second uptake, 10 mM Tris/Mes pH 8.5, 150 mM NaCl, labelled compound

B1: MhsT (Halalkalibacterium halodurans C-125) (protein)
chain: SLKQQTGREQWASRLGFILAAMGSAVGLGNIWRFSYVTGENGGAAFLLVYLGFIALIGIPIVLAEFTIGRRAQSDAVGSFEKLAPGKPWKVAGLMGVAAGFLILSFYGVIAGWILFYLFNYITGQLWSAPAEGFGGFFEGFIANPTLPLFWQALFMIATIWIVAIGVKKGIERSNKILMPLLGVLLIALAIYSLTLGGAKEGLAFLFSPDWSALKDPGVYLAAISQAFFTLSLGMGALITYGSYVSKDSRLPGAAVSVAGLDTAFAIIAGIMIFPAVFALGLSPSGGPGLVFVVLPDIFDSIRLGPIVGIAFFILLGAAALSSAVSLLEVPVAYFMRKFDWSRKQAAITLGVIITLLGIPSSLSFGVLGEVTIIPGLNIFDSVDFIASSVFLPLGGMIIALFIGWGWKTSDALAESDLTDSVWGKLWILSLRFIAPIAILIVFLSAFQIFFN
- Km: 1.07 ± 0.19 µM
